Assay: yeast display, Sf9 membrane polyspecificity reagent, FACS + sequencing; frameworks hold sequencing errors
Method in brief: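 Galactose-induced (36–48 hours) yeast carrying a synthetic nanobody display library were exposed to 10% biotinylated, detergent-solubilized Sf9 membrane reagent at 4 °C for 1 hour. FACS followed streptavidin microbead enrichment, using low and high (top ~1%) gates for expression (anti-HA) and reagent binding (streptavidin). Colony PCR, MiSeq 2 × 250 sequencing and CDR-length filtering followed. Labels for polyreactivity reflect the gate of origin.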

Sequence | polyreactivity (PSR sort gate)
QVQLVESGGGLVQAGGSLRLSCAASGFIFNKYAMGWYRQAPGKERELVATIRRDGSTNYADSVKGRFTISRDNAKNTVYLQMNSLKPEDTAVYYCAVRPYYWSRDYYWGQGTQVTVSS | high polyreactivity
QVQLVESGGGLVQAGGSLRLSCAASGFIFNRNAMGWYRQAPGKEREFVAAISTRGAGTYYADSVKGRFTISRDNAKNTVYLQMNSLKPEDTAVYYCAADKFRYGYYNRYSKVGYDYWGQGTQVTVSS | high polyreactivity
QVQLVESGGGLVQAGGSLRLSCAASGFIFNRYAMGWYRQAPGKERELVAAISYRGGGTYYADSVKGRFTISRDNAKNTVYLQMNSLKPEDTAVYYCAADSSYYYPMDYWGQGTQVTVSS | high polyreactivity
QVQLVESGGGLVQAGGSLRLSCAASGFIFNRYAMGWYRQAPGKERELVADITGGSTYYADSVKGLFTISRDNAKNTVFLQMNSLKPEDTAVYYCAADVLRISTLLFRGPGFDSWGQGTQVTVSS | low polyreactivity
QVQLVESGGGLVQAGGSLRLSCAASGFIFNSYAMGWYRQAPGKERELVATITNGGTTNYADSVKGRFTLSRDNATITVYLQMNSLKPEDTAVYYCAAVGPSVYHEYDYWGQGTQVTVSS | low polyreactivity
QVQLVESGGGLVQAGGSLRLSCAASGFIFNYNTMGWYRQAPGKERELVAAITWSGVSTYADSVKGRFTISRDNAKNTVYLQMNSLKPEDTAVYYCAASPYQRESVYDFGYDYWGQGTQVTVSS | low polyreactivity
QVQLVESGGGLVQAGGSLRLSCAASGFIFNYYAMGWYRQAPGKEREFVAAITWRGGSTNYADSVKGRFTISRDNAKNTVYLQMNSLKPEDTAVYYCAAYSVWGGSYLALDYWGQGTQVTVSS | low polyreactivity
QVQLVESGGGLVQAGGSLRLSCAASGFIFNYYGMGWYRQAPGKERELVATISGSGGSTYYADSVKGRFTISRDNAKNTVYLQMNSLKPEDTAVYYCNRYPPVHNVGEAYGTLHGYYWGQGTQVTVSS | low polyreactivity
QVQLVESGGGLVQAGGSLRLSCAASGFIFNYYVMGWYRQAPGKERELVATISWRGGRTYYADSVKGRFTISRDNAKNTVYLQMKSLKPEDTAVFYCAKESYYFTRYDYWGQGTQVTVSS | low polyreactivity
QVQLVESGGGLVQAGGSLRLSCAASGFIFPANAMGWSRQAPGKERELVAAINYSGGSTYYADSVKGRFTISRDNAKNTVYLQMNSLKPEDTAVYYCNADFYVVGVTTVDLSGYDSWGQGTQVTVSS | low polyreactivity
QVQLVESGGGLVQAGGSLRLSCAASGFIFPAYAMGWYRQAPGKERELVAAITSNGGSTYYADSVKGRFTITRDNAKNTVYLQMNSLKPEDTAVYYCNADWYWDYGWVYPEYYYWGQGTQVTVSS | high polyreactivity
QVQLVESGGGLVQAGGSLRLSCAASGFIFPFYVRGWYRQAPGKERELVAAINTGGSTYYADSVKGRFTISRDNAKNTVYLQMNSLKPEDTAVYYCAAKSRVKKYYFYGYNYWGQGTQVTVSS | high polyreactivity
QVQLVESGGGLVQAGGSLRLSCAASGFIFPGNMGWYRQAPGKERELVAAISWSGGSTRYADSVKGRFTISRDNAKNTVYLQMNSLKPEDTAVYYCAASLSGKRFTKRYYWGQGTQVTVSS | high polyreactivity
QVQLVESGGGLVQAGGSLRLSCAASGFIFPGYAMGWYRQAPGKERELVAAISWSGGRTYYADSVKGRFTISRDNAKNTVYLQMNSLKPEDTAVYYCNARYRQITYEYDYWGQGTQVTVSS | high polyreactivity
QVQLVESGGGLVQAGGSLRLSCAASGFIFPLYTMGWDRQAPGKERELVAAISVTGGSTYYADSVKGRFTISRDNAKNTVYLQMNSLKPEDTAVYYCAADLYYIWVYGYSSAMDYWGQGTQVTLSS | high polyreactivity
QVQLVESGGGLVQAGGSLRLSCAASGFIFPSNAMGRYRQAPGKERELVAAISSRGTRTYYADSVKGRFTISRDNAKNTVYLQMNCLKPEDTAVYYCAKYGYWGQGTQVTVSS | high polyreactivity
QVQLVESGGGLVQAGGSLRLSCAASGFIFPTYAMGWYRQAPGKERELVAAITWSGSDTYYADSVKGRFTISRDNAKNTVYLQMNRLKPEDTAVYYCAAEVSKYGWRYYYWGQGTQVTVSS | low polyreactivity
QVQLVESGGGLVQAGGSLRLSCAASGFIFPTYAMGWYRQAPGKERELVATITTNAGGTHYADSVKGRFTISRDNAKNNVYIQMNSLKPEDTAVYYCNAYGPNIYSSRYDYWGQGTQVTVSS | low polyreactivity
QVQLVESGGGLVQAGGSLRLSCAASGFIFPYYDMGWYRQAPGKERELVADIDSSGGTTYYADSVKGRFTISRDNAKNTVYLQMNSLKPEDTAVYYCAATYQAWTWYPYYVIYDYWGQGTQVTVSS | high polyreactivity
QVQLVESGGGLVQAGGSLRLSCAASGFIFPYYGMGWYRQAPGKERELVATISRSGGRTYYADSVKGRFTISRDNAKNTVYLQMNSLKPEDTAVYYCARTTPYFYVDWGGYDYWGQGTQVTVSS | high polyreactivity
QVQLVESGGGLVQAGGSLRLSCAASGFIFQIYAMGWYRQAPGKERELVAAISSGGSTNYADSVKGRFTISRDNAKNTVYLQMNSLKPEDTAVYYCAAATHYWYFYSFKDKSGFRGYYWGQGTQVTVSS | high polyreactivity

Sequence | polyreactivity (PSR sort gate)
QVQLVESGGGLVQAGGSLRLSCAASGFIFQKYVMGWSRQAPGKERELVAVISRSGDSTRYADSVKGRFTISRDNAKNTVYLQMNSLKPEDTAVFYCAAASAKFTGTGYYFWGQGTQVTVSS | high polyreactivity
QVQLVESGGGLVQAGGSLRLSCAASGFIFQPYVMGWYRQAPGKERELVAAISWNGVSTYYADSVKGRFTISRDNAKNTVYLQMNSLKPEDTAVYYCAASYRYVPGLNYWGQGTQVTVSS | low polyreactivity
QVQLVESGGGLVQAGGSLRLSCAASGFIFQRNAMGWYRQAPGKERELVAAIRSSGGTTYYADSVKGRFTISRDNAKNTVYLQMNSLKPEDTAVYYCAAVTTSKFNYWGQGSQVTVSS | low polyreactivity
QVQLVESGGGLVQAGGSLRLSCAASGFIFQVYAMGWYRQAPGKERELVAGISRTGGSTYYADSVKGRFTISRDNAKNTVYLQMNSLKPEDTAVYYCAKPYWGYYGYFTHNYWGQGTQVTVSS | high polyreactivity
QVQLVESGGGLVQAGGSLRLSCAASGFIFQYYAMGWYRQAPGKERELVAVIRSGGSTYYADSVKGRFTISRDNAKNTVYLQMNSLKPEDTAVYYCNARRTYLDRYNYWGQGTQVTVSS | high polyreactivity
QVQLVESGGGLVQAGGSLRLSCAASGFIFRAYAMGWYRQEPGKERELVAAISRGGGTYYADSVKGRFTISRDNAKNTVYLQMNSLKPEDTAVYYCAVDLLRRGFPTVVTTYDYWGQGTQVTVSS | high polyreactivity
QVQLVESGGGLVQAGGSLRLSCAASGFIFRDNAMGWYRQAPGKERELVAAISSRGGSTYYADSVKGRFTISRDNAKNTVYLQMNSLKPEDTAVYYCAKRPYKSRVQLDSWGQGTQVTVSS | high polyreactivity
QVQLVESGGGLVQAGGSLRLSCAASGFIFRDYAMGWYRQAPGKERELVATISSS | low polyreactivity
QVQLVESGGGLVQAGGSLRLSCAASGFIFRFNAMGWYRQAPGKERQLVAAISGSGGITYYADSVKGRFTISRDNAKNTVYLQMNSLKPEDTAVYYCAARPLFGWRGYNYWGQGTQVTVSS | high polyreactivity
QVQLVESGGGLVQAGGSLRLSCAASGFIFRFYAMGWYRQAPGKERELVATISKRGGTTYYADSVKGRFTISRDNAKYTVYLQMNSLKPEDTAVYFCAVRLYLEMDYWGQGTQVTVSS | high polyreactivity
QVQLVESGGGLVQAGGSLRLSCAASGFIFRGYAMGWYRQAPGKERELVAAISRSGGSTYYADSVKGRFTISRDNAKNTVYLQMNSLKPEDTAVYYCAARNSPGFPGDYWGQGTQVTVSS | high polyreactivity
QVQLVESGGGLVQAGGSLRLSCAASGFIFRKYAMGWYRQAPGKERELVAAITNGGSTYADSVKGRFTISRDNAKNTVYLQMNSLKPEDTAVYYCNARYRPRQRPEGGYWGQGTQVTVSS | high polyreactivity
QVQLVESGGGLVQAGGSLRLSCAASGFIFRNYVMGWYRQAPGKERELVAAINWSTGTTNYADSVKGGFTISRDNAKNTVYLQMNSLKPEDTAVYYCNARYRLRYIYSLRYDYWGQGTQVTVSS | high polyreactivity
QVQLVESGGGLVQAGGSLRLSCAASGFIFRPYAMGWYRQAPGKERELVAAITGGGSTYYADSVKGRFTISRDNAKNTVYLQMNSLKPEDTAVYYCAKDKGRAYFGPSPYDYWGQGTQVTVSS | low polyreactivity
QVQLVESGGGLVQAGGSLRLSCAASGFIFRPYAMGWYRQAPGKERELVAALTGGGSTYYADSVKGRFTISRDNAKNTVYLQMNSLKPEDTAVYYCNADRRRRSGGFAAWHFQRNDYWGQGTQVSVSS | low polyreactivity
QVQLVESGGGLVQAGGSLRLSCAASGFIFRRNAMGRYRQAPGKERELVAAITSRGGSTYYADSVKGRFTISRDNAKHTVYLQMNSLKPEDTAVYYCAAKFPSRFYSFVQYYYWGQVTQVTVSS | high polyreactivity
QVQLVESGGGLVQAGGSLRLSCAASGFIFRRNAMGWYRQAPGKERELVAAIRQRGDSTYYADSVKGRFTISRDNAKITVYLQMNSLKPEDTAVYYCNAVAKLYYWRYDYWGQGTQVTVSS | low polyreactivity
QVQLVESGGGLVQAGGSLRLSCAASGFIFRRYAMGWYRPAPGKEREFVAAISWSGATTYYADSVKGRFTISRDNAKITVYLQMNSLKPEDTAVYYCAKDVRRSPSTWDNYWGQGTQVTVSS | high polyreactivity
QVQLVESGGGLVQAGGSLRLSCAASGFIFRRYAMGWYRQAPGKERELVAAISRTGSTNYADSVKGRFTISRDNAKNTVYLKMNSLKPDDTAVYYCNARYITFNGYGYGYWGQGTQVTVSS | high polyreactivity
QVQLVESGGGLVQAGGSLRLSCAASGFIFRRYARGWYRQAPGKERELVASISWRGGSTYYADSVKGRFTISRDNAKNTVYLQMNSLKPEDTAVYYCAARIGATYWVDWTHRAYDYWGQGTQVTVSS | high polyreactivity

— the nanobody polyreactivity screen of Harvey et al. (2022)
